These are literature values, as cited in article PMC5494978.

The target of this data set is Bfd (Pseudomonas aeruginosa) (UniProt Q9HY80).
Chain of UniProt Q9HY80 (Q9HY80 whole entry): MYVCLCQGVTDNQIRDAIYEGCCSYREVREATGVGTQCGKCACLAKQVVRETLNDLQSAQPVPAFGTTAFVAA

For BfrB (from UniProt Q9HY79), the Kd (usually the constant that tells how readily two partners part at equilibrium) is 3 µM.
